From patent US20180273587A1 (AILERON THERAPEUTICS, published 2018) come the findings set out here.

Positions of bridges follow the written chain, without caps; N, C: chain ends. Non-standard residues stand in square brackets, D forms with d. Phe(4-F) = N[C@@H](Cc1ccc(F)cc1)C(=O)O; R8 = C=CCCCCCC[C@@](C)(N)C(=O)O; Cit = NC(=O)NCCC[C@H](N)C(=O)O; αMeD = C[C@](N)(CC(=O)O)C(=O)O; hLeu = CC(C)CC[C@H](N)C(=O)O; S5 = C=CCCC[C@](C)(N)C(=O)O

Broadly, the Ki is a dissociation constant, usually derived from enzyme kinetics or from competition with a known ligand.

The target of one assay is T1, MCL-1 (UniProt Q07820 172-327, limits assumed).
T1 construct: Target of the Ki columns; also called Myeloid cell leukemia 1
The assay can be described thus: Ki; method not stated; unit not printed (nM per Table 6).

In the next assay the target is T2, BCL-XL (UniProt Q07817 1-209).
T2 construct: Target of the Ki columns
The description is as above.

T2 sequence (Q07817 1-209): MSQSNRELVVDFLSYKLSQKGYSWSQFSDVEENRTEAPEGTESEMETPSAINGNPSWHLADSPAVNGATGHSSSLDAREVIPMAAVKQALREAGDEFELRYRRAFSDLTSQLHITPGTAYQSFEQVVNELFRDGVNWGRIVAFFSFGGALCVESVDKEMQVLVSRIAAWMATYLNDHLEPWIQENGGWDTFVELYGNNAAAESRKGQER
T1 sequence (Q07820 172-327 limits assumed): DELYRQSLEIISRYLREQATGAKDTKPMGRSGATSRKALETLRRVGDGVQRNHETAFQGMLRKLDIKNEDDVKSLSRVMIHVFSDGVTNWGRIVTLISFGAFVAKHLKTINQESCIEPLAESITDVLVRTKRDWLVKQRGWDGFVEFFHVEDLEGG

B1: SEQ ID NO: 1776 (peptide)
peptide: Ac-IWIAQALR[R8][hLeu]GDAFN[S5][Phe(4-F)]YA-NH2
modifications: staple 9-16
SMILES: CC[C@H](C)[C@H](NC(C)=O)C(=O)N[C@@H](Cc1c[nH]c2ccccc12)C(=O)N[C@H](C(=O)N[C@@H](C)C(=O)N[C@@H](CCC(N)=O)C(=O)N[C@@H](C)C(=O)N[C@@H](CC(C)C)C(=O)N[C@@H](CCCNC(=N)N)C(=O)N[C@]1(C)CCCCCCC=CCCC[C@@](C)(C(=O)N[C@@H](Cc2ccc(F)cc2)C(=O)N[C@@H](Cc2ccc(O)cc2)C(=O)N[C@@H](C)C(N)=O)NC(=O)[C@H](CC(N)=O)NC(=O)[C@H](Cc2ccccc2)NC(=O)[C@H](C)NC(=O)[C@H](CC(=O)O)NC(=O)CNC(=O)[C@H](CCC(C)C)NC1=O)[C@@H](C)CC
For B1, the inhibition constant (Ki) with MCL-1 came out at 58 nM; with BCL-XL, 43 nM.

B2: SEQ ID NO: 1777 (peptide)
peptide: Ac-IWIAQALR[R8][hLeu]GDAFN[S5]Y[Phe(4-F)]A-NH2
modifications: staple 9-16
SMILES: CC[C@H](C)[C@H](NC(C)=O)C(=O)N[C@@H](Cc1c[nH]c2ccccc12)C(=O)N[C@H](C(=O)N[C@@H](C)C(=O)N[C@@H](CCC(N)=O)C(=O)N[C@@H](C)C(=O)N[C@@H](CC(C)C)C(=O)N[C@@H](CCCNC(=N)N)C(=O)N[C@]1(C)CCCCCCC=CCCC[C@@](C)(C(=O)N[C@@H](Cc2ccc(O)cc2)C(=O)N[C@@H](Cc2ccc(F)cc2)C(=O)N[C@@H](C)C(N)=O)NC(=O)[C@H](CC(N)=O)NC(=O)[C@H](Cc2ccccc2)NC(=O)[C@H](C)NC(=O)[C@H](CC(=O)O)NC(=O)CNC(=O)[C@H](CCC(C)C)NC1=O)[C@@H](C)CC
On to B2, for which the inhibition constant Ki worked out at 27 nM with MCL-1 and 13 nM in the assay with BCL-XL.

B3: SEQ ID NO: 1768 (peptide)
peptide: Ac-IWIAQALR[R8]IG[αMeD]AFN[S5]YYA-NH2
modifications: staple 9-16
SMILES: CC[C@H](C)[C@H](NC(C)=O)C(=O)N[C@@H](Cc1c[nH]c2ccccc12)C(=O)N[C@H](C(=O)N[C@@H](C)C(=O)N[C@@H](CCC(N)=O)C(=O)N[C@@H](C)C(=O)N[C@@H](CC(C)C)C(=O)N[C@@H](CCCNC(=N)N)C(=O)N[C@]1(C)CCCCCCC=CCCC[C@@](C)(C(=O)N[C@@H](Cc2ccc(O)cc2)C(=O)N[C@@H](Cc2ccc(O)cc2)C(=O)N[C@@H](C)C(N)=O)NC(=O)[C@H](CC(N)=O)NC(=O)[C@H](Cc2ccccc2)NC(=O)[C@H](C)NC(=O)[C@](C)(CC(=O)O)NC(=O)CNC(=O)[C@H]([C@@H](C)CC)NC1=O)[C@@H](C)CC
Turning to B3, in the assay with BCL-XL, the Ki came out at 206 nM.

B4: SEQ ID NO: 1771 (peptide)
peptide: Ac-IWIAQAA[Cit][R8]IGDAFN[S5]YYA-NH2
modifications: staple 9-16
SMILES: CC[C@H](C)[C@H](NC(C)=O)C(=O)N[C@@H](Cc1c[nH]c2ccccc12)C(=O)N[C@H](C(=O)N[C@@H](C)C(=O)N[C@@H](CCC(N)=O)C(=O)N[C@@H](C)C(=O)N[C@@H](C)C(=O)N[C@@H](CCCNC(N)=O)C(=O)N[C@]1(C)CCCCCCC=CCCC[C@@](C)(C(=O)N[C@@H](Cc2ccc(O)cc2)C(=O)N[C@@H](Cc2ccc(O)cc2)C(=O)N[C@@H](C)C(N)=O)NC(=O)[C@H](CC(N)=O)NC(=O)[C@H](Cc2ccccc2)NC(=O)[C@H](C)NC(=O)[C@H](CC(=O)O)NC(=O)CNC(=O)[C@H]([C@@H](C)CC)NC1=O)[C@@H](C)CC
In the case of B4, the affinity with BCL-XL corresponds to a Ki of 85 nM.
